Data on 9 molecules can be found in US20070197430A1, “Conjugates And Therapeutic Uses Thereof” (priority 2004, published 2007).

The nature of data set [1]: Circular dichroism, alpha-helical content of peptides. It is filed as physicochemical. The conditions noted are these: 30% aqueous trifluoroethanol. The method, then:
Circular dichroism spectra were obtained using a Jasco Model J-710 spetropolarimeter at 20° C. using the following parameters: path length, 2 mm; step resolution, 0.1 nm; speed, 20 nm/min, accumulation, 4; response, 1 second; bandwidth, 1.0 nm. The peptides were analysed at a concentration of 0.5 mg/mL in 30% aqueous TFE. The alpha-helical content of the peptides were determined by methods described in Yang et al (1986), involving comparisons of spectra with model helical peptides.
For orientation: Circular dichroism is widely used to follow secondary structure.

In data set [2] the test system is pre-B tumor cells from E-mu myc transgenic mice. Briefly: Cell viability by propidium iodide exclusion, flow cytometry. It is filed as cell-based. To be noted: Mus musculus, 24 h, read-out: % viable cells at 24 hours. On the technique in general: Flow cytometry measures light scatter and fluorescence of single cells or particles in a stream.
Method: After 24 hours incubation at 37° C. in 5% CO2, the cells were washed with PBS and 50 μL of 100 μg/mL solution of propidium iodide was added to each well. The cells were analyzed by flow cytometry (BD Facscan) and the viable cells denoted as the percentage of cells excluding propidium iodide.
Data set [3] addresses GST tagged Bcl w delta C29 protein (UniProt Q92843). Briefly: competition assay; competitor: biotinylated Bim-BH3 peptide.
For data set [4], the target named is 6-His tagged Bcl w delta C10 protein (UniProt Q92843). Described as above.
In a further data set the target is Bcl-2 ΔC22 (Homo sapiens, UniProt P10415). Described as above.
The target of data set [5] is GST tagged Bcl w delta C29 protein (UniProt Q92843). Briefly: competition assay; competitor: biotinylated Bim BH3 peptide.
Data set [6] has the same target. Briefly: competition assay; competitor: biotinylated BIM-BH3 peptide.
Data set [7] addresses T1, Bcl-xL ΔC25 (Homo sapiens, UniProt Q07817). In words: AlphaScreen GST detection; competitor: biotinylated BimBH3 peptide; second of two values. A general note: Alpha assays give light when donor and acceptor beads are brought close together.
The target of data set [8] is Mcl-1 ΔC23 (UniProt Q07820). In words: AlphaScreen GST detection; competitor: biotinylated BakBH3 peptide.
The target of data set [9] is Mcl-1 ΔC23 (UniProt Q07820). Briefly: AlphaScreen GST detection; competitor: biotinylated BakBH3 peptide; second of two values.
Data set [10] addresses Mcl-1 ΔC23 (UniProt Q07820). In words: SPR, Biacore S51, direct binding.
Data set [11] concerns the target T1, Bcl-xL ΔC25. Briefly: AlphaScreen GST detection; competitor: biotinylated BimBH3 peptide.

Bridge positions count the residues as written; N and C are the ends. Peptide text beside a SMILES is read from it.

With `CC[C@H](C)[C@H](NC(C)=O)C(=O)N[C@@H](C)C(=O)N[C@@H](CCC(N)=O)C(=O)N[C@H]1CCC(=O)NCC(=O)NCCNC(=O)CC[C@@H](C(=O)N[C@@H](Cc2ccccc2)C(N)=O)NC(=O)[C@H](CC(=O)O)NC(=O)CNC(=O)[C@H]([C@@H](C)CC)NC(=O)[C@H](CCCNC(=N)N)NC(=O)[C@H](CCCNC(=N)N)NC(=O)[C@H](CC(C)C)NC1=O` [D, Ac-IAQ-E-LRRIGD-E-F-NH2] (HELM PEPTIDE1{[ac].I.A.Q.E.L.R.R.I.G.D.E.F.[am]}|CHEM1{[O=C(CN[*:1])NCCN[*:2]]}$PEPTIDE1,CHEM1,5:R3-1:R1|PEPTIDE1,CHEM1,12:R3-1:R2$$$V2.0), in data set [1], the “% Helicity” value came to 16%.

Take `COc1cc([C@@H]2c3cc4c(cc3[C@@H](O[C@@H]3O[C@@H]5CO[C@@H](C)O[C@H]5[C@H](O)[C@H]3O)[C@H]3COC(=O)[C@H]23)OCO4)cc(OC)c1O` [Etoposide]: in data set [2] (concentration 0.015 μM), the viability at 0.015 µM amounted to 80%. Also, the viability at 0.0312 µM in data set [2] (concentration 0.0312 μM) stood at 50%. Besides, the viability at 0.0625 µM in [2] (concentration 0.0625 μM) stood at 21%. Also, in data set [2] (concentration 0.125 μM), the viability at 0.125 µM was found to be 0%. The viability at 0.25 µM in [2] (concentration 0.25 μM) amounted to 0%. Besides, the viability at 0.5 µM in data set [2] (concentration 0.5 μM) turned out to be 0%. In addition, the viability at 1 µM in data set [2] (concentration 1.0 μM) stood at 0%.

B1: Peptide D: Ac-IAQ-E-LRRIGD-E-F-NH2 with a -NHCH2C(═O)NHCH2CH2NH- linker (peptide)
peptide: IAQELRRIGDEF
HELM: PEPTIDE1{[ac].I.A.Q.E.L.R.R.I.G.D.E.F.[am]}|CHEM1{[O=C(CN[*:1])NCCN[*:2]]}$PEPTIDE1,CHEM1,5:R3-1:R1|PEPTIDE1,CHEM1,12:R3-1:R2$$$V2.0
SMILES: CC[C@H](C)[C@H](NC(C)=O)C(=O)N[C@@H](C)C(=O)N[C@@H](CCC(N)=O)C(=O)N[C@H]1CCC(=O)NCC(=O)NCCNC(=O)CC[C@@H](C(=O)N[C@@H](Cc2ccccc2)C(N)=O)NC(=O)[C@H](CC(=O)O)NC(=O)CNC(=O)[C@H]([C@@H](C)CC)NC(=O)[C@H](CCCNC(=N)N)NC(=O)[C@H](CCCNC(=N)N)NC(=O)[C@H](CC(C)C)NC1=O
One may read the IC50 as the concentration at which inhibition is half-maximal. Low values mean greater potency, high ones weaker potency. Consider B1, for which the results for the IC50 (in [3]; in [4]; with Bcl-2 ΔC22) were 160 nM, 40 nM and 6900 nM, respectively.

For the molecule Ac-EIAQELREIGDEF-NH2 (linker 1-8 via 1,5‑diaminopentane) [Peptide A of Example 7: Ac-E-IAQELR-E-IGDEF-NH2 with a 1,5-diaminopentane linker (first position)], the values for the IC50 (in [3]; in data set [4]; with Bcl-2 ΔC22) were 1800 nM, 2600 nM and 26000 nM, respectively.

On to Ac-IWIAQELRRIGDEFNA-NH2 [linear 16-mer Ac-…-NH2], for which the IC50 in data set [5] and in data set [6] was 2.5 nM throughout.

With Ac-IWIAQELRRIGDEFNA-NH2 (linker 6-13 via ‑NHCH2C(═O)(CH2)2NH2‑), in data set [6], the IC50 is 0.3 nM.

As a reminder, the Kd is the free concentration of one partner at which half of the binding sites on the other are occupied at equilibrium, for simple one-to-one binding. Read a high Kd as a looser complex. For Ac-IAQQLRRIGDQF-NH2 [L2 Ac-…-NH2], the IC50 turned out to be 890 nM in the data set with Bcl-xL ΔC25 [7], 650 nM with Mcl-1 ΔC23 [8], 660 nM with Mcl-1 ΔC23 [9] and 960 nM with Bcl-xL ΔC25 [11]. The molecule further yielded a Kd with Mcl-1 ΔC23 [10] of 920 nM.

Regarding Ac-IAQELRRIGDEF-NH2 (linker 4-11 via 1,6‑diaminohexane) [Peptide C: Ac-IAQ-E-LRRIGD-E-F-NH2 with a 1,6-diaminohexane linker], the values for the IC50 (in data set [3]; in data set [4]; with Bcl-2 ΔC22) were 120 nM, 230 nM and 2600 nM, respectively.

With Ac-IWIAQELRRIGDEFNA-NH2 (linker 6-13 via 1,5‑diaminopentane) [Peptide E: constrained 16-mer with a pentane linker tethering the two glutamate residues], the IC50 in data set [6] worked out at 0.5 nM.
